Molecular target: T1, chio_human CHN2 (UniProt P52757)
T1 sequence: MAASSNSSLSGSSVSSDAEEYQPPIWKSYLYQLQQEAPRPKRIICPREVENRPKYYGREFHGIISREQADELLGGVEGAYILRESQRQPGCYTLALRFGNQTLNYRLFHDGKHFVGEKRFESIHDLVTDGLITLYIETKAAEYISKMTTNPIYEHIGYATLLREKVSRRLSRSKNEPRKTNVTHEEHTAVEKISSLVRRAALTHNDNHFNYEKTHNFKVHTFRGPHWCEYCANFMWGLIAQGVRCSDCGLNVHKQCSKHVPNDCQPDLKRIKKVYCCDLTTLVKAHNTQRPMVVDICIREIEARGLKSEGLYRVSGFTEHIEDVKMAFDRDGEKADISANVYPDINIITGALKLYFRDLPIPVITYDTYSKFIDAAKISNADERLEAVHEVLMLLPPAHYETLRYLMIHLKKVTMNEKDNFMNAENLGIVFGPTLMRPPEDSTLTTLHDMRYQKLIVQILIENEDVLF

Substance | effect of a mutation on the interaction
Ras-related C3 botulinum toxin substrate 1 (Homo sapiens) (from UniProt P63000) G12V | increasing interaction
Ras-related C3 botulinum toxin substrate 1 (Homo sapiens) (from UniProt P63000) T17N | disrupting interaction
